Measured values as given in patent publication EP1682577B1.
Blank lines part the entries; values can stand above or below the substance they belong to.

Legend:
Assay in all cases: cell-based or functional assay
[1] = molecular target: CRHR1 (UniProt P34998)
[2] = molecular target: Vasoactive Intestinal Peptide 1 receptor (UniProt P32241)
[3] = molecular target: Melanocortin 5 receptor (UniProt P33032)
[4] = molecular target: Melanocortin 1 receptor (UniProt Q01726)
Melanocortin 1 receptor, sequence (Q01726 whole entry): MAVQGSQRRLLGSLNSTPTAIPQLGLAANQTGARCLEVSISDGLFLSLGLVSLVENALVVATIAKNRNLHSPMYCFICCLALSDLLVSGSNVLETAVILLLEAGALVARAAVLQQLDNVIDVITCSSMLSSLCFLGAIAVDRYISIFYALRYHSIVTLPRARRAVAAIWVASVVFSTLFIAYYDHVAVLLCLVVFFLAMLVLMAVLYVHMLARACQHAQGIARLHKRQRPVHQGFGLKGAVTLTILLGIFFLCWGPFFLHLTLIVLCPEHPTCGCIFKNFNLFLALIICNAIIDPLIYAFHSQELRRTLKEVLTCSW

Melanocortin 5 receptor, sequence (P33032 whole entry): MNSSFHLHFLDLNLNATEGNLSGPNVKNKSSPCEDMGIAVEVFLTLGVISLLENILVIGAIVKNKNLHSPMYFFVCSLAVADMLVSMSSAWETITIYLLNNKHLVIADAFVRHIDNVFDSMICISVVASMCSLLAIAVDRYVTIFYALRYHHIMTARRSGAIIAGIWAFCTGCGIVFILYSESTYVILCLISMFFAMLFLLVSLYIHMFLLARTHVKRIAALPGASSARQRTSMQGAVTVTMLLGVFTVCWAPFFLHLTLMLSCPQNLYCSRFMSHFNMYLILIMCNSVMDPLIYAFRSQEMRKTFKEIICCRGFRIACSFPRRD
CRHR1, sequence (P34998 24-415 limits assumed): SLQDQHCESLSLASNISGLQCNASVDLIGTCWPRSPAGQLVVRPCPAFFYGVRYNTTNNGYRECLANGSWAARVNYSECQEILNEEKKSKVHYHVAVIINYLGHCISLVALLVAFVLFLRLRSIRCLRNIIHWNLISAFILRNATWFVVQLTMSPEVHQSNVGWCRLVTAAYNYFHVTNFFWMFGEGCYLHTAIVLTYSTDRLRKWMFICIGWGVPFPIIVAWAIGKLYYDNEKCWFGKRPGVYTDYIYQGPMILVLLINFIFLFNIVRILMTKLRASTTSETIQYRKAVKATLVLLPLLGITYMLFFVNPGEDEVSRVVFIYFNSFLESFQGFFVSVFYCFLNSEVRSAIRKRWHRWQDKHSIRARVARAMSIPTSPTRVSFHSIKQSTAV
Vasoactive Intestinal Peptide 1 receptor, sequence (P32241 31-457): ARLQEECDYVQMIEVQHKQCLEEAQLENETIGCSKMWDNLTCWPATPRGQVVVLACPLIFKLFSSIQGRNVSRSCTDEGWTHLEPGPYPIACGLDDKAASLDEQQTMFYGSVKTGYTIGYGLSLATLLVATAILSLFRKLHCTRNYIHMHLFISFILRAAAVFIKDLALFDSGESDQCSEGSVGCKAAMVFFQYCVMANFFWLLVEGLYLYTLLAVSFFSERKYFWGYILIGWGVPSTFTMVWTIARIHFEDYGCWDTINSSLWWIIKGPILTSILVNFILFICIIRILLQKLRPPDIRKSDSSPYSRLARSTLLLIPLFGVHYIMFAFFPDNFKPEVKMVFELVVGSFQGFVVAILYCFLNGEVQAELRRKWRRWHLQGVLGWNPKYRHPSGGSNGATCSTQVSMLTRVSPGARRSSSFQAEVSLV

EC50 of cell response (MDC dye) [1]: 0.028 nM | EC50 of cell response (NY & H30602) [1]: 0.028 nM | Fmax/ Fb (MDC dye) [1]: 4.2 | Fmax/ Fb (NY & H30602) [1]: 4.3
Substance: CRF (from UniProt P06850 154-194) (peptide)

EC50 of cell response (MDC dye) [2]: 0.0024 nM | EC50 of cell response (TB & H30602) [2]: 0.005 nM | Fmax/ Fb (MDC dye) [2]: 4.9 | Fmax/ Fb (TB & H30602) [2]: 5
Substance: VIP (from UniProt P01282 125-152) (peptide)

EC50 of cell response (MDC dye) [3]: 2900 nM | EC50 of cell response (NR& H30602) [3]: 1300 nM | EC50 of cell response (NY & H30602) [3]: 950 nM | Fmax/ Fb (MDC dye) [3]: 3.6 | Fmax/ Fb (NR& H30602) [3]: 3.2 | Fmax/ Fb (NY & H30602) [3]: 3.4
Substance: [Nle4-D-Phe7]α-MSH (from UniProt P01189 138-150) (peptide)

EC50 of cell response (MDC dye) [4]: 820 nM | EC50 of cell response (TB & H30602) [4]: 770 nM | Fmax/ Fb (MDC dye) [4]: 5 | Fmax/ Fb (TB & H30602) [4]: 5.1
Substance: α-MSH (from UniProt P01189 138-150) (peptide)
